The labels stand for the following.
B1: BIIB-9-440 (antibody, V domains shown)
VH: QLQLQESGPGLVKPSETLSLTCTVSGGSISSSDYYWGWIRQPPGKGLEWIGSIYYSGSTYYNPSLKSRVTISVDTSKNQFSLKLSSVTAADTAVYYCARSPRHKVRGPNWFDPWGQGTLVTVSS
VL: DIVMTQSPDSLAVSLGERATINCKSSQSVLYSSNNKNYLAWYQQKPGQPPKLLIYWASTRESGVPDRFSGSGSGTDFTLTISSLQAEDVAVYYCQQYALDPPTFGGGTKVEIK
B2: BIIB-9-621 (antibody, V domains shown)
VH: QLQLQESGPGLVKPSETLSLTCTVSGGSISSSSYYWGWIRQPPGKGLEWIGSIYYSGSTYYNPSLKSRVTISVDTSKNQFSLKLSSVTAADTAVYYCARDGSISGSRFDYWGQGTLVTVSS
VL: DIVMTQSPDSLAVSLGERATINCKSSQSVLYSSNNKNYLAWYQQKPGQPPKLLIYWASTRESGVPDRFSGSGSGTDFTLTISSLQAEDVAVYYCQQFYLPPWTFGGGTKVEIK
B3: BIIB-9-1264 (antibody, V domains shown)
VH: QVQLVQSGAEVKKPGASVKVSCKASGYTFTSYYMHWVRQAPGQGLEWMGIINPSGGSTSYAQKFQGRVTMTRDTSTSTVYMELSSLRSEDTAVYYCARDGDSSVYAFDYWGQGTLVTVSS
VL: DIQMTQSPSSLSASVGDRVTITCQASQDITNYLNWYQQKPGKAPKLLIYDASNLETGVPSRFSGSGSGTDFTFTISSLQPEDIATYYCQQVDDYPFTFGGGTKVEIK
B4: BIIB-9-461 (antibody, V domains shown)
VH: QVQLVQSGAEVKKPGASVKVSCKASGYTFTSYYMHWVRQAPGQGLEWMGIINPSGGSTSYAQKFQGRVTMTRDTSTSTVYMELSSLRSEDTAVYYCARGPTDSSGYLDMDVWGKGTTVTVSS
VL: EIVMTQSPATLSVSPGERATLSCRASQSVSSSLAWYQQKPGQAPRLLIYGASTRATGIPARFSGSGSGTEFTLTISSLQSEDFAVYYCQQHHHWPPTFGGGTKVEIK
B5: BIIB-9-1278 (antibody, V domains shown)
VH: QVQLVQSGAEVKKPGASVKVSCKASGYTFTSYYMVWVRQAPGQGLEWMGIINPSGGSTSYAQKFQGRVTMTRDTSTSTVYMELSSLRSEDTAVYYCARGPGELGYYLAFDIWGQGTMVTVSS
VL: B4 VL with S32N, H92A, H93N, W94F
B6: BIIB-9-1281 (antibody, V domains shown)
VH: QVQLQQWGAGLLKPSETLSLTCAVYGGSFSGYYWSWIRQPPGKGLEWIGEIDHSGSTNYNPSLKSRVTISVDTSKNQFSLKLSSVTAADTAVYYCARTTRSKYYGMDVWGQGTMVTVSS
VL: DIQMTQSPSTLSASVGDRVTITCRASQSISSWLAWYQQKPGKAPKLLIYKASSLESGVPSRFSGSGSGTDFTLTISSLQPEDFATYYCQQAISLPITFGGGTKVEIK
B7: BIIB-9-887 (antibody, V domains shown)
VH: QVQLVQSGAEVKKPGASVKVSCKASGYTFTSYYMVWVRQAPGQGLEWMGIINPSGGSTSYAQKFQGRVTMTRDTSTSTVYMELSSLRSEDTAVYYCARDAEAHWIPGMDVWGQGTTVTVSS
VL: B6 VL with T10S, L11V, S28G, K50A, E55Q, I92S, L94F, I96F
B8: BIIB-9-439 (antibody, V domains shown)
VH: QVQLVQSGAEVKKPGASVKVSCKASGYTFTSYYMHWVRQAPGQGLEWMGIINPSGGSTTYAQKFQGRVTMTRDTSTSTVYMELSSLRSEDTAVYYCAREATESYYYMDVWGKGTTVTVSS
VL: EIVMTQSPATLSLSPGERATLSCRASQSVSSYLAWYQQKPGQAPRLLIYDSSNRATGIPARFSGSGSGTDFTLTISSLEPEDFAVYYCQQRDNWPFTFGGGTKVEIK
B9: BIIB-9-1267 (antibody, V domains shown)
VH: B3 VH with G100H, D101G, S102W, S103A, V104I, A106G, F107M, Y109V, L115T
VL: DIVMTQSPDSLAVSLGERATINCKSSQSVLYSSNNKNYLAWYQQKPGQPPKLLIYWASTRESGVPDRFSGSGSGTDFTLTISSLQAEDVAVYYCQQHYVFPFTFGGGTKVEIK
B10: BIIB-9-445 (antibody, V domains shown)
VH: QVQLVQSGAEVKKPGASVKVSCKASGYTFTSYYIHWVRQAPGQGLEWMGIINPSGGSTSYAQKFQGRVTMTRDTSTSTVYMELSSLRSEDTAVYYCARDVGQDYWFDLWGRGTLVTVSS
VL: B4 VL with S32N, G50S, H91Y, H92D, H93N, W94F, P96F

Residue numbers refer to the chain shown, from its start.

A word on the Kd: it is the concentration at which binding is half-saturated. Higher therefore signals weaker binding.

The target in the experiment is free FIXa (activated Factor IX) (UniProt P00740 47-191; P00740 227-461). In words: BLI. (In general: In BLI a coated tip is dipped into the sample, and binding shifts an interference pattern.)
The molecule B1 displayed a Kd of 39.9 nM.

B2 gave a Kd of 16.7 nM.

Regarding B3, the affinity, expressed as Kd, was 14.9 nM.

Regarding B4, the Kd turned out to be 43.1 nM.

The molecule B5 yielded a dissociation constant Kd of 66.2 nM.

In turn, B6 displayed a Kd of 16.8 nM.

The molecule B7 registered a Kd of 6.1 nM.

Regarding B8, the Kd amounted to 15.6 nM.

In the case of B9, the affinity, expressed as Kd, was 15.6 nM.

B10 registered a Kd of 20.2 nM.
